The values below come from publication doi:10.1101/2023.05.30.542831.

In general, Kd refers to the equilibrium constant for the complex coming apart.

The assay has as its target APB-R3, long-acting recombinant human IL-18BP linked to the human albumin-binding Fab fragment SL335 (human). The assay can be described thus: SPR.

Turning to “human IL-18 (from UniProt Q14116 37-193) (ligand)”, the Kd was determined as 60.9 pM.
